Drawing on PMC8206812 (Frontiers in Bioengineering and Biotechnology, 2021), this text covers relative activity, Km and Vmax for 3 molecules.

Data set [1] addresses T1, yeast hexokinase (HK) (Saccharomyces cerevisiae, UniProt P04807).
T1 construct: gene HXK2; commercial preparation containing predominantly the PII isoform (HXK2); may contain some PI
T1 sequence (P04807 2-486): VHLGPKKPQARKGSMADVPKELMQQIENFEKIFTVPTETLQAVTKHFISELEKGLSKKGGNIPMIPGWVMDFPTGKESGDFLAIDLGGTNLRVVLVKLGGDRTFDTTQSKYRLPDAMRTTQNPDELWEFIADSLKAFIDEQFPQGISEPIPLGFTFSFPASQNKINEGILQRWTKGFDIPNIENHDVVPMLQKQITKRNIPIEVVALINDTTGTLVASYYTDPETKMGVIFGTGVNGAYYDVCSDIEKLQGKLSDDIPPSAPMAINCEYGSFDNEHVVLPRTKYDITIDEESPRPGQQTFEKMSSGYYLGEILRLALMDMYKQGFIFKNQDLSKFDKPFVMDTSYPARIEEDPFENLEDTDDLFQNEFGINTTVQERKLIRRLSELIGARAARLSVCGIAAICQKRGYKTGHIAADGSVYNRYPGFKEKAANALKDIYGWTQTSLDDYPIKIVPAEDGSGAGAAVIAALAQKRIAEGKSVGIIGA
Description: coupled G6PDH assay, NADH formation. Type of data set: biochemical. The following applies: inhibition by product; 0.15-20 mM ADP, 30 °C, pH 7.5.

Substrate in data set [2]: Nc1ncnc2c1ncn2[C@@H]1O[C@H](COP(=O)(O)OP(=O)(O)O)[C@@H](O)[C@H]1O
Description: luciferase ATP determination assay. Type of data set: biochemical, Pseudomonas aeruginosa. The conditions noted are these: 0-20 mM ADP, 10 mM sodium polyphosphate (Graham's salt), 10 mM MgCl2, sodium phosphate pH 7.5, 30 °C.

Substrate in data set [3]: Nc1ncnc2c1ncn2[C@@H]1O[C@H](COP(=O)(O)OP(=O)(O)OP(=O)(O)O)[C@@H](O)[C@H]1O
Description: coupled G6PDH assay, NADH formation. In kind it is biochemical, Saccharomyces cerevisiae. The conditions noted are these: 200 mM glucose, 10 mM MgCl2, 50 mM sodium phosphate pH 7.5, 30 °C. An excerpt:
coupled G6PDH assay, NADH formation on yeast hexokinase (HK)

In the case of `Nc1ncnc2c1ncn2[C@@H]1O[C@H](COP(=O)(O)OP(=O)(O)O)[C@@H](O)[C@H]1O` [ADP], the relative activity entry in data set [1] was “ADP lowered the reaction even at small concentrations”.

B1: PPK2 (Pseudomonas aeruginosa PAO1) (protein)
chain: MDSYGDTSGRIGRDWLDRHDEELEQELLDDELNLDELFGPEQEDAPGELSRRRYFRELFRLQRELVKLQNWVVHTGHKVVILFEGRDAAGKGGVIKRITQRLNPRVCRVAALPAPNDREQTQWYFQRYVSHLPAGGEIVLFDRSWYNRAGVERVMGFCNDEQYEEFFRSVPEFEKMLARSGIQLLKYWFSISDAEQHLRFLSRIHDPLKQWKLSPMDLESRRRWEAYTKAKETMLERTHIPEAPWWVVQADDKKRARLNCIHHLLQQMPYREVPQPPVHLPERLRHADYVRHPTPGEIIVPEVY
notes: about 39 kDa; E. coli BL21 (DE3)
The Km is the substrate concentration at which the rate is half of its maximum. Consider B1, for which the Km in data set [2] worked out at 23 ± 5.9 µM.

B2: yeast hexokinase (HK) (Saccharomyces cerevisiae S288C) (protein)
chain: T1 sequence (P04807 2-486)
notes: commercial preparation containing predominantly the PII isoform (HXK2); may contain some PI
A word on the Vmax: it is the rate approached at saturating substrate. With B2, in data set [3], the Km was 1107 ± 74 µM and the Vmax came to 33 µM/min.
